In PMC3088709, “Phosphorylation of the Yeast γ-Tubulin Tub4 Regulates Microtubule Function” (PLoS ONE, 2011):

Molecular target: T1, Spc97-3HA (S. cerevisiae, UniProt P38863 1-823)
T1 construct: Spc97, budding yeast; tagged with 3HA in the TUB4-AID strain; source: S. cerevisiae (TUB4-AID SPC97-3HA strain), in lysate
T1 sequence (looked up): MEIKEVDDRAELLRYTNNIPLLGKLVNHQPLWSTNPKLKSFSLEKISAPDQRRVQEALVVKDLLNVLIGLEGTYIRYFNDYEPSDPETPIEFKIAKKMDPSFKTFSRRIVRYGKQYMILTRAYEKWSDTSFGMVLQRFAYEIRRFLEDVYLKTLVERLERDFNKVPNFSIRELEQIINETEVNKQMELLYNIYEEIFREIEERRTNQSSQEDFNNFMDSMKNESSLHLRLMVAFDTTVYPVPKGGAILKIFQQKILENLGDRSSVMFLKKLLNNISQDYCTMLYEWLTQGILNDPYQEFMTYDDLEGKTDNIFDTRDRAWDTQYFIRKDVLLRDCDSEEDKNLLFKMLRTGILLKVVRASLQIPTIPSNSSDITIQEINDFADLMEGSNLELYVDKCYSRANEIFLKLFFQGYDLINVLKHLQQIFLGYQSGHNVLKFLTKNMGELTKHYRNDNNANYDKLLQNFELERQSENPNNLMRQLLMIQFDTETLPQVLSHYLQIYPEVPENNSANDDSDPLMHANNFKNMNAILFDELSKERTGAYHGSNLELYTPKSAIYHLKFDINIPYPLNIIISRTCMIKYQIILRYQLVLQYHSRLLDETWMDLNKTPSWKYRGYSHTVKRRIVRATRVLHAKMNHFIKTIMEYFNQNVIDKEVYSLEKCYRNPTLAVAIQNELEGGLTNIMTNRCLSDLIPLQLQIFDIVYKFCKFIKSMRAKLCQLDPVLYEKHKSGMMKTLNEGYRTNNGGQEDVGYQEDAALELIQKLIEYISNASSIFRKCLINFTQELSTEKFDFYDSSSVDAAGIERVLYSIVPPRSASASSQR
Test: co-IP; anti-HA immunoprecipitation of Spc97-3HA from lysates of TUB4-AID SPC97-3HA cells carrying pRS305 with TUB4, tub4-S74E, tub4-S100E or tub4-S360D, after 2 h of 0.5 mM IAA at 30°C to deplete Tub4-AID; blots with anti-Tub4, anti-Spc98, anti-Spc110 and anti-HA, normalised to precipitated Spc97-3HA
Settings: partners not purified

amount in complexes with Spc97-3HA relative to WT Tub4: ~75 % of WT Tub4
B1: Tub4-S74E (natural protein, S. cerevisiae, UniProt P53378 1-473, looked up)
chain: MGGEIITLQAGQCGNHVGKFLWSQLAKEHAIGTDGLSQLPDSSTERDDDTKPFFRENSRNKFTPRAIMMDSEPEVIADVENTFRGFFDPRNTWVASDGASAGNSWANGYDIGTRNQDDILNKIDKEIDSTDNFEGFQLLHSVAGGTGSGLGSNLLEALCDRYPKKILTTYSVFPARSSEVVVQSYNTILALRRLIEDSDATVVFDNASLLNISGKVFRNPNIDLQHTNQLISTIISSVTNSIRFPSYMYSSMSSIYSTLIPSPELHFLSPSFTPFTSDYIHDDIAHKGHSSYDVMLDLLDPSNSLVSTAMNNPTYFNVYNTIIGNVEPRQISRAMTKLQQRIKFPSWSSSAMHVNIGRRSPYLPLQPNENEVSGMMLSNMSTVVNVFENACNTFDKVFAKGAFLNNYNVGDLFQSMQNVQDEFAESREVVQSLMEDYVAAEQDSYLDDVLVDDENMVGELEEDLDADGDHKLV
notes: Tub4, gamma-tubulin of budding yeast, phospho-mimicking mutant; source: S. cerevisiae, from integrated pRS305-tub4-S74E, in lysate
